Data: paper PMC5186407 (Journal of molecular biology, 2016)

Key:
[1] = biological target: BAG3 Δ87–101 (UniProt O95817); experiment: ITC
[2] = biological target: BAG3 Δ200–213 (UniProt O95817); experiment: ITC
[3] = biological target: BAG3 with the first IPV motif mutated to GPG (IPV1) (UniProt O95817); experiment: ITC
[4] = biological target: Hsp27c, truncated Hsp27 with only the core α-crystallin domain (human); experiment: flow cytometry protein interaction assay
[5] = biological target: Hsp27-3D, triple phospho-mimetic mutant of Hsp27 (human) (UniProt P04792); experiment: flow cytometry protein interaction assay
[6] = biological target: Hsp70 NBD (Homo sapiens) (UniProt P0DMV8); conditions: cited from earlier work
Chain of Hsp70 NBD (Homo sapiens) (P0DMV8 2-386): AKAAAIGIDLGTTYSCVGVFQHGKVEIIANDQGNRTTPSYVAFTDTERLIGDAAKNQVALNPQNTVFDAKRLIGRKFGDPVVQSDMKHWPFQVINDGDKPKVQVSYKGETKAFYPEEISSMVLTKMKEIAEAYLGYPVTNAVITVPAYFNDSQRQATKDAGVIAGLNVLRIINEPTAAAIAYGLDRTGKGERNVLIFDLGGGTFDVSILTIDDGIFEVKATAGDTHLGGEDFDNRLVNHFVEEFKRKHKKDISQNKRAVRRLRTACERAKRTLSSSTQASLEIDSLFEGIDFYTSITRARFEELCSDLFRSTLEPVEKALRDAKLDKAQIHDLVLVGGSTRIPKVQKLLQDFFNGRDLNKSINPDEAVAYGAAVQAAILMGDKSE

[7] = biological target: BAG3 Δ87–101 & Δ200–213 (UniProt O95817 1-575, Δ87–101 | Δ200–213, Alexa Fluor label in the FCPIA experiments); experiment: flow cytometry protein interaction assay

## Hsp27c, truncated Hsp27 with only the core α-crystallin domain (domain or fragment)
[1]
  stoichiometry N: 1 Hsp27c:BAG3
[2]
  stoichiometry N: 1 Hsp27c:BAG3
[3]
  stoichiometry N: 1 Hsp27c:BAG3

## BAG3 Δ87–101 & Δ200–213 (from UniProt O95817 1-575) (natural protein)
[4]
  fold weakening of the affinity against BAG3 with both IPV motifs: > 25 fold
[5]
  Kd: > 50 µM

## BAG3 (from UniProt O95817)
[6]
  Kd: 0.01 µM

B1: Hsp20 (HSPB6) (natural protein, human, UniProt O14558 1-160, looked up)
chain: MEIPVPVQPSWLRRASAPLPGLSAPGRLFDQRFGEGLLEAELAALCPTTLAPYYLRAPSVALPVAQVPTDPGHFSVLLDVKHFSPEEIAVKVVGEHVEVHARHEERPDEHGFVAREFHRRYRLPPGVDPAAVTSALSPEGVLSIQAAPASAQAPPPAAAK
modifications: biotin (EZ-link NHS-Biotin) in the FCPIA experiments
[7]
  Kd: > 50 µM
